Laboratory results taken from patent US20260022175A1 (Chugai, published 2026).

Columns and labels:
[1] = biological target: T1, mCTLA4-His (mouse CTLA4 extracellular region linked with a His-tag) (mouse, UniProt P09793 36-161); assay: SPR 37C, ATP 100 µM
[2] = biological target: T1, mCTLA4-His (mouse CTLA4 extracellular …); assay: SPR 37C, ATP 10 µM
[3] = biological target: T2, mouse CTLA4 extracellular region linked with a His-tag (mCTLA4-His) (mouse, UniProt P09793 36-161); assay: SPR Biacore T200, 37C, antibody captured, ATP 10 uM
human CTLA4 [4] = biological target: T3, human CTLA4 (human); assay: as above
T3 construct: also called hCTLA4; hCTLA4-His-BAP

[5] = biological target: T4, cynomolgus monkey CTLA4 (CyCTLA4-His-BAP) (cynomolgus monkey); assay: as above
[6] = biological target: T2, mouse CTLA4 extracellular region linked …; assay: SPR Biacore T200, 37C, antibody captured, ATP 1 uM
human CTLA4 [7] = biological target: T3, human CTLA4; assay: SPR Biacore T200, 37C, antibody captured, ATP 1 uM
[8] = biological target: T4, cynomolgus monkey CTLA4 …; assay: SPR Biacore T200, 37C, antibody captured, ATP 1 uM
human CTLA4 [9] = biological target: T3, human CTLA4; assay: SPR Biacore T200, 37C, antibody captured, ATP 10 uM; remark: listed apart in the source
[10] = biological target: T2, mouse CTLA4 extracellular region linked …; assay: SPR Biacore T200, 37C, antibody captured, ATP 100 uM
human CTLA4 [11] = biological target: T3, human CTLA4; assay: as above
[12] = biological target: T4, cynomolgus monkey CTLA4 …; assay: as above
human CTLA4 [13] = biological target: T3, human CTLA4; assay: SPR Biacore T200, 37C, antibody captured, ATP 10 uM; remark: listed apart in the source
human CTLA4 [14] = biological target: T3, human CTLA4; assay: SPR Biacore T200, 37C, antibody captured, no ATP, steady state model
human CTLA4 [15] = biological target: T3, human CTLA4; assay: SPR Biacore T200, 37C, antibody captured, ADP 10 uM;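 further: antibodies held on a Protein G CM3 chip, human CTLA4 as analyte in ACES pH 7.4 buffer, rates from a global 1:1 Langmuir fit, Kd from rates or steady state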
human CTLA4 [16] = biological target: T3, human CTLA4; assay: SPR Biacore T200, 37C, antibody captured, ATP 1 uM; remark: listed apart in the source
human CTLA4 [17] = biological target: T3, human CTLA4; assay: SPR Biacore T200, 37C, antibody captured, no ATP, steady state model; remark: listed apart in the source
human CTLA4 [18] = biological target: T3, human CTLA4; assay: SPR Biacore T200, 37C, antibody captured, ATP 100 uM; remark: listed apart in the source
human CTLA4 [19] = biological target: T3, human CTLA4; assay: SPR Biacore T200, 37C, antibody captured, ATP 10 uM; remark: listed apart in the source
human CTLA4 [20] = biological target: T3, human CTLA4; assay: SPR Biacore T200, 37C, antibody captured, AMP 10 uM
[21] = biological target: T5, hCTLA4-His-BAP (human CTLA4 extracellular region with C-terminal His-tag and BAP-tag) (human, biotin on the BAP-tag); assay: SPR 37C, ATP 10 µM
T5 construct: also called hCTLA4-His-Biotin

human CTLA4 [22] = biological target: T3, human CTLA4; assay: SPR Biacore T200, 37C, antibody captured, ATP 100 uM; ATP 100 µM
human CTLA4 [23] = biological target: T3, human CTLA4; assay: SPR Biacore T200, 37C, antibody captured, ATP 1 uM; ATP 1 µM; binding amount
human CTLA4 [24] = biological target: T3, human CTLA4; assay: SPR Biacore T200, 37C, antibody captured, ATP 100 uM; ATP 100 µM; binding amount
human CTLA4 [25] = biological target: T3, human CTLA4; assay: SPR Biacore T200, 37C, antibody captured, ATP 10 uM; ATP 10 µM
human CTLA4 [26] = biological target: T3, human CTLA4; assay: SPR Biacore T200, 37C, antibody captured, no ATP; no ATP; binding amount
human CTLA4 [27] = biological target: T3, human CTLA4; assay: SPR Biacore T200, 37C, antibody captured, ATP 10 uM; ATP 10 µM; binding amount
[28] = biological target: T5, hCTLA4-His-BAP (human CTLA4 …); assay: SPR 37C, ATP 100 µM
[29] = biological target: T5, hCTLA4-His-BAP (human CTLA4 …); assay: SPR 37C, ATP 10 µM; remark: listed apart in the source
[30] = biological target: T5, hCTLA4-His-BAP (human CTLA4 …); assay: SPR 37C, no ATP, steady state model
[31] = biological target: T6, Abatacept (human IgG1 constant region fused to hCTLA4) (human, UniProt P16410 38-161, biotinylated by amine coupling); assay: phage ELISA
T6 construct: bought drug; also called Abatacept-Biotin; biotin-labeled abatacept
T6 sequence (looked up): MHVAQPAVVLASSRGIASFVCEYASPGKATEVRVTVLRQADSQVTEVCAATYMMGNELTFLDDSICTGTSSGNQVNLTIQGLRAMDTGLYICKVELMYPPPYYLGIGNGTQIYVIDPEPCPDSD

T5 sequence (chain, as listed by the source limits assumed): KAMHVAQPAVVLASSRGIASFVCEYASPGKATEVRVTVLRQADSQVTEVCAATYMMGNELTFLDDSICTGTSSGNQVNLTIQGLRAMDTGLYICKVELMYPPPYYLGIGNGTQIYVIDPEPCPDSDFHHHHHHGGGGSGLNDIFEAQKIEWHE
T4 sequence (chain, as listed by the source limits assumed): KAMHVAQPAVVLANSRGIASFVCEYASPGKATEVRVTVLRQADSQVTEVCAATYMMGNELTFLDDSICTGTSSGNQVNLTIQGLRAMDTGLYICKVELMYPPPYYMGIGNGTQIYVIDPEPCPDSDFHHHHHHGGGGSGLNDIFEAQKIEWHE

B1: hUH02-G1d/hUL01-k0 (antibody, human IgG1, kappa, V domains shown)
VH: QVQLQESGPGLVKPSETLSLTCTVSGYSISSGYGWNWIRQPPGKGLEWIGFIYYEGSTYYNPSIKSRISITRDTSKNQFFLQVNSVTTEDTATYYCARQTGYFDYWGQGTLVTVSS
VL: DIVMTQSPDSLAVSLGERATINCKSSQSLFNSNAKTNYLNWYQQKPGQPPKLLIYYASTRHTGVPDRFSGSGSGTDFTLTISSLQAEDVAVYYCQQWYDYPYTFGAGTKVEIKR
notes: also called anti-mouse CTLA4 antibody
Kd [1]: 110 nM | Kd [2]: 110 nM

B2: 04H1389-G1m/04L1305-k0MT (antibody, human IgG1, kappa)
heavy: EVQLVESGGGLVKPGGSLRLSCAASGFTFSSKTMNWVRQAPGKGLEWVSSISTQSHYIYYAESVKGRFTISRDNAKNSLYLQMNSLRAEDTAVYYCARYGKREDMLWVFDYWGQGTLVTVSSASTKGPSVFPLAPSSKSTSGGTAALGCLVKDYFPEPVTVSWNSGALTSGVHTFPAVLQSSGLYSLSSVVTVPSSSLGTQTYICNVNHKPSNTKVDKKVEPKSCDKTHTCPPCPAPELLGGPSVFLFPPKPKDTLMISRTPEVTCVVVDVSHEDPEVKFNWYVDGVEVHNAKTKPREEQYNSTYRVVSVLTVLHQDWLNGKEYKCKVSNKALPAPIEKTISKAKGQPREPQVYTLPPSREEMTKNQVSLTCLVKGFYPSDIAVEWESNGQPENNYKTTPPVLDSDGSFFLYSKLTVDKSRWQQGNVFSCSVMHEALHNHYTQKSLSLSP
light: DIVMTQSPLSLPVTPGEPASISCDGPSTGVGDYNYVHWYQQKPGQAPRLLIYFTSKKPSGVPDRFSGSGSGTDFTLKISRVEAEDVGVYYCQTYAAPLGPMFGQGTKLEIKRTVAAPSVFIFPPSDEQLKSGTASVVCLLNNFYPREAKVQWKVDNALQSGNSQESVTEQDSKDSTYSLSSTLTLSKADYEKHKVYACEVTHQGLSSPVTKSFNRGEC
Kd [3]: 32 nM | Kd (human CTLA4 [4]): 14 nM | Kd [5]: 26 nM | Kd [6]: 210 nM | Kd (human CTLA4 [7]): 72 nM | Kd [8]: 140 nM | Kd (human CTLA4 [9]): 15 nM | Kd [10]: 12 nM | Kd (human CTLA4 [11]): 4.6 nM | Kd [12]: 12 nM | Kd (human CTLA4 [13]): 19 nM | Kd (human CTLA4 [14]): 2400 nM | Kd (human CTLA4 [15]): 25 nM | koff (human CTLA4 [15]): 0.0038 s⁻¹ | kon (human CTLA4 [15]): 160000 M⁻¹ s⁻¹ | Kd (human CTLA4 [16]): 82 nM | Kd (human CTLA4 [17]): 3200 nM | Kd (human CTLA4 [18]): 5.4 nM | Kd (human CTLA4 [19]): 17 nM | koff (human CTLA4 [19]): 0.0019 s⁻¹ | kon (human CTLA4 [19]): 110000 M⁻¹ s⁻¹ | Kd (human CTLA4 [20]): 79 nM | koff (human CTLA4 [20]): 0.012 s⁻¹ | kon (human CTLA4 [20]): 150000 M⁻¹ s⁻¹

B3: 04H1389-G1m/04L1086-lam1 (antibody, human IgG1, lambda, V domains shown)
VH: EVQLVESGGGLVKPGGSLRLSCAASGFTFSSKTMNWVRQAPGKGLEWVSSISTQSHYIYYAESVKGRFTISRDNAKNSLYLQMNSLRAEDTAVYYCARYGKREDMLWVFDYWGQGTLVTVSS
VL: QSALTQPPSASGSPGQTVTISCDGPSTGVGDYNYVHWYQQHPGKAPKLMIYFTSKKPSGVPDRFSGSKSGNTASLTVSGLQAEDEADYFCQTYAAPLGPMFGGGTKLTVLG
fold enhancement of binding ability against parent 04H1207-G1m/04L1086-lam1 [21]: ~10 fold

B4: 04H1389-G1m/04L1086-lam1 (antibody, human IgG1, lambda, V domains shown)
VH: EVQLVESGGGLVKPGGSLRLSCAASGFTFSSKTMNWVRQAPGKGLEWVSSISTQSHYIYYAESVKGRFTISRDNAKNSLYLQMNSLRAEDTAVYYCARYGKREDMLWVFDYWGQGTLVTVSS
VL: QSALTQPPSASGSPGQTVTISCDGPSTGVGDYNYVHWYQQHPGKAPKLMIYFTSKKPSGVPDRFSGSKSGNTASLTVSGLQAEDEADYFCQTYAAPLGPMFGGGTKLTVLG
Kd (human CTLA4 [9]): 37 nM | Kd (human CTLA4 [13]): 43 nM | Kd (human CTLA4 [14]): 5700 nM | Kd (human CTLA4 [15]): 44 nM | koff (human CTLA4 [15]): 0.0061 s⁻¹ | kon (human CTLA4 [15]): 140000 M⁻¹ s⁻¹ | Kd (human CTLA4 [16]): 180 nM | Kd (human CTLA4 [17]): 5100 nM | Kd (human CTLA4 [18]): 21 nM | Kd (human CTLA4 [19]): 32 nM | koff (human CTLA4 [19]): 0.0032 s⁻¹ | kon (human CTLA4 [19]): 100000 M⁻¹ s⁻¹ | Kd (human CTLA4 [20]): 130 nM | koff (human CTLA4 [20]): 0.018 s⁻¹ | kon (human CTLA4 [20]): 140000 M⁻¹ s⁻¹

B5: 04H1382-G1m/04L1086-lam1 (antibody, human IgG1, lambda, V domains shown)
VH: EVQLVESGGGLVKPGGSLRLSCAASGFTFSSKTMNWVRQAPGKGLEWVSSISTQSHYIYYARSVKGRFTISRDNAKNSLYLQMNSLRAEDTAVYYCARYGKREDMLWVFDYWGQGTLVTVSS
VL: QSALTQPPSASGSPGQTVTISCDGPSTGVGDYNYVHWYQQHPGKAPKLMIYFTSKKPSGVPDRFSGSKSGNTASLTVSGLQAEDEADYFCQTYAAPLGPMFGGGTKLTVLG
Kd (human CTLA4 [22]): 14 nM | Binding to Human CTLA4 (binding amount per unit amount of antibody) (human CTLA4 [23]): 0.09 | Binding to Human CTLA4 (binding amount per unit amount of antibody) (human CTLA4 [24]): 0.159 | Kd (human CTLA4 [25]): 46 nM | Binding to Human CTLA4 (binding amount per unit amount of antibody) (human CTLA4 [26]): 0.008 | Binding to Human CTLA4 (binding amount per unit amount of antibody) (human CTLA4 [27]): 0.152

B6: 04H1077-G1m/04L1066-lam1 (antibody, human IgG1, lambda, V domains shown)
VH: EVQLVESGGDLVKPGGGLRLSCAASGFTFSSRTMNWVRQAPGKGLEWVSSISTRSGYIYYAESVKGRFTISRDNAKNSLYLQMNSLRAEDTAVYYCARYGKREDMLWVFDYWGQGTLVTVSS
VL: QSALTQPPSASGSPGQTVTISCDGPSTDVGDYNWVHWYQQHPGKAPKLMIYFTSKKPSGVPDRFSGSKSGNTASLTVSGLQAEDEADYFCSTYAAPLGPMFGGGTKLTVLG
Kd [28]: 48 nM | Kd [29]: 280 nM | Kd [30]: 6900 nM

B7: 04H1382-G1m/04L1086-lam1 (antibody, human IgG1, lambda, V domains shown)
VH: EVQLVESGGGLVKPGGSLRLSCAASGFTFSSKTMNWVRQAPGKGLEWVSSISTQSHYIYYARSVKGRFTISRDNAKNSLYLQMNSLRAEDTAVYYCARYGKREDMLWVFDYWGQGTLVTVSS
VL: QSALTQPPSASGSPGQTVTISCDGPSTGVGDYNYVHWYQQHPGKAPKLMIYFTSKKPSGVPDRFSGSKSGNTASLTVSGLQAEDEADYFCQTYAAPLGPMFGGGTKLTVLG
fold enhancement of binding ability against parent 04H1208-G1m/04L1086-lam1 [21]: ~10 fold

B8: 04H1077-G1m/04L1305-k0MT (antibody, human IgG1, kappa, V domains shown)
VH: EVQLVESGGDLVKPGGGLRLSCAASGFTFSSRTMNWVRQAPGKGLEWVSSISTRSGYIYYAESVKGRFTISRDNAKNSLYLQMNSLRAEDTAVYYCARYGKREDMLWVFDYWGQGTLVTVSS
VL: DIVMTQSPLSLPVTPGEPASISCDGPSTGVGDYNYVHWYQQKPGQAPRLLIYFTSKKPSGVPDRFSGSGSGTDFTLKISRVEAEDVGVYYCQTYAAPLGPMFGQGTKLEIKR
Kd [28]: 56 nM | Kd [29]: 360 nM | Kd [30]: 6500 nM

B9: ABAM001 (antibody, human IgG1, V domains shown)
VH: EVQLVESGGDLVKPGGGLRLSCAASGFTFSSYTMHWVRQAPGKGLEWVSSISSRSRYKYYADSVKGRFTISRDNAKNSLYLQMNSLRAEDTAVYYCARFGIKNKRNWVLDYWGQGTLVTVSS
VL: QSALTQPPSASGSPGQTVTISCTGTSTDVGAYNYVSWYQQHPGKAPKLMIYQVSKRPSGVPDRFSGSKSGNTASLTVSGLQAEDEADYFCSLYTTRPQLAFGGGTKLTVL
notes: also called ABADh11-4_020
binding result [31]: binds

B10: ABAM003 (antibody, human IgG1, V domains shown)
VH: EVQLVESGGDLVKPGGGLRLSCAASGFTFSGYTMHWVRQAPGKGLEWVSSISSRSRYASYADSVKGRFTISRDNAKNSLYLQMNSLRAEDTAVYYCARFGIKNHLNWVFDYWGQGTLVTVSS
VL: QSALTQPPSASGSPGQTVTISCTGTSSDVGDYNYVSWYQQHPGKAPKLMIYGVSKRPSGVPDRFSGSKSGNTASLTVSGLQAEDEADYFCSTVSTSHSPVFGGGTKLTVL
notes: also called ABADh12-4_014
binding result [31]: binds
